The source of these data is patent publication US20050288217A1 (UNIVERSITY OF NORTH CAROLINA AT CHAPEL HILL, published 2005).

Sequences and labels used below:
T1: β3 integrin mutant in which the identical region of the β1 integrin was substituted for the 8 amino acid … (UniProt P05106 27-788)
T1 construct: whole, on cells; also called mutant protein; β3 mutant
T1 sequence (looked up): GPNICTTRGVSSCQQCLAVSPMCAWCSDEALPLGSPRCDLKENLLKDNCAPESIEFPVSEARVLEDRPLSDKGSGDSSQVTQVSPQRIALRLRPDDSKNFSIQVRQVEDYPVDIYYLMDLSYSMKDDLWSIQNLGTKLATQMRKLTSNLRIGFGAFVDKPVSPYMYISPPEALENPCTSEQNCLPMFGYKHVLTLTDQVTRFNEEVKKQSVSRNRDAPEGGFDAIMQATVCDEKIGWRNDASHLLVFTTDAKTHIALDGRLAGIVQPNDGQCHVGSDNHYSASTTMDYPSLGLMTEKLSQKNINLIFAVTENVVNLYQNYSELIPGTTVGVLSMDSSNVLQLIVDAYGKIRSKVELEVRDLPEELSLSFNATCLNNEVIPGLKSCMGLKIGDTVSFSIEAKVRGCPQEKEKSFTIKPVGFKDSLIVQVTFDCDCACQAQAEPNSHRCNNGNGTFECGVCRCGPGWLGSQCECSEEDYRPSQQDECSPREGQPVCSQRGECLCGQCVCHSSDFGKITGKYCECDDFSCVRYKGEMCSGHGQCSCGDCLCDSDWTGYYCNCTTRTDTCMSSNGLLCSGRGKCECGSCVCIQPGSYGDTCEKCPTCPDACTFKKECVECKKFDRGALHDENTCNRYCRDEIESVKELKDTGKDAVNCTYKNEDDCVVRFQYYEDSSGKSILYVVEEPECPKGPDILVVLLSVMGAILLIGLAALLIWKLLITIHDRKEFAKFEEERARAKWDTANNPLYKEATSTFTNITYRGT

B1: vitronectin (ligand, UniProt P04004 20-478, looked up)
chain: DQESCKGRCTEGFNVDKKCQCDELCSYYQSCCTDYTAECKPQVTRGDVFTMPEDEYTVYDDGEEKNNATVHEQVGGPSLTSDLQAQSKGNPEQTPVLKPEEEAPAPEVGASKPEGIDSRPETLHPGRPQPPAEEELCSGKPFDAFTDLKNGSLFAFRGQYCYELDEKAVRPGYPKLIRDVWGIEGPIDAAFTRINCQGKTYLFKGSQYWRFEDGVLDPDYPRNISDGFDGIPDNVDAALALPAHSYSGRERVYFFKGKQYWEYQFQHQPSQEECEGSSLSAVFEHFAMMQRDSWEDIFELLFWGRTSAGTRQPQFISRDWHGVPGQVDAAMAGRIYISGMAPRPSLAKKQRFRHRNRKGYRSQRGHSRGRNQNSRRPSRATWLSLFSSEESNLGANNYDDYRMDWLVPATCEPIQSVFFFSGDKYYRVNLRTRRVDTVDPPYPRSIAQYWLGCPAPGHL
B2: osteopontin (ligand)
chain: not shown
B3: heparin binding epidermal growth factor (ligand, UniProt Q99075 63-148, looked up)
chain: DLQEADLDLLRVTLSSKPQALATPNKEEHGKRKKKGKGLGKKRDPCLRKYKDFCIHGECKYVKELRAPSCICHPGYHGERCHGLSL
B4: connective tissue growth factor (ligand, UniProt P29279 27-349, looked up)
chain: QNCSGPCRCPDEPAPRCPAGVSLVLDGCGCCRVCAKQLGELCTERDPCDPHKGLFCHFGSPANRKIGVCTAKDGAPCIFGGTVYRSGESFQSSCKYQCTCLDGAVGCMPLCSMDVRLPSPDCPFPRRVKLPGKCCEEWVCDEPKDQTVVGPALAAYRLEDTFGPDPTMIRANCLVQTTEWSACSKTCGMGISTRVTNDNASCRLEKQSRLCMVRPCEADLEENIKKGKKCIRTPKISKPIKFELSGCTSMKTYRAKFCGVCTDGRCCTPHRTTTLPVEFKCPDGEVMKKNMMFIKTCACHYNCPGDNDIFESLYYRKMYGDMA

The experiment has as its target T1, β3 integrin mutant in which the …. In words: binding assay on CHO cells expressing the mutant β3.
Consider B1, for which the binding result is “no binding”. Under B2 stands “no binding”; under B3, “no binding”; under B4, “no binding”.
